Experiment [1] has as its target T1, tissue factor (UniProt P13726 33-251, limits assumed).
T1 construct: also called TF; antigen tissue factor
The experiment in a line: SPR (Biacore S200), antibody amine-coupled on CM5 chip, tissue factor as analyte 1.125-18 nM; MAb01. An excerpt:
(§1) The humanized anti-tissue factor antibody was coupled to the 2nd channel on the surface of the CM5 chip via amino groups, the 1st and the 3rd channels were used as reference channels, the tissue factor flew through the chip surface as the analyte (mobile phase). […] The Kinetics/Affinity program of Bicore S200 was run to measure the affinity.

Experiment [2] concerns the target T1, tissue factor. The experiment in a line: SPR (Biacore S200), antibody amine-coupled on CM5 chip, tissue factor as analyte 1.125-18 nM; MAb02.
Description: as §1

The target in experiment [3] is T1, tissue factor. The experiment can be described thus: SPR (Biacore S200), same method, tissue factor as analyte 12.5-200 nM; parent antibody before modification; tissue factor 12.5-200 nM.
Description: as §1

T1 sequence (P13726 33-251 limits assumed): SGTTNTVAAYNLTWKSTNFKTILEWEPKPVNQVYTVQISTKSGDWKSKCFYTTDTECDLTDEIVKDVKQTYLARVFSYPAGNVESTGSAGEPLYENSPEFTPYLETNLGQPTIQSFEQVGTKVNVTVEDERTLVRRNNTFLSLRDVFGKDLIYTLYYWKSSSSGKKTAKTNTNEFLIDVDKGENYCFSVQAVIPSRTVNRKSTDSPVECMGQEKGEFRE

B1: humanized anti-tissue factor antibody MAb01 (antibody, V domains shown)
VH: QIQLVQSGPELVKPGASVQVSCKTSGYSFTDYNVYWVRQSPAKGIEWIGYIDPYNGLTIYEQNFRGKGTLSLDHSTSTAYMELNSLRYEDTAVYFCARDVTTALDFWGQGTSVTVSS
VL: DIQMTQSPASISASIGERVTITCLASQTIDTWLAWFLQKPGRSPNLLIYAATNLADGVPYRFSASGSGNDFSLTISSLNPEDVATYYCQQVYSSPFTFGQGNKLEIRR
In the experiment with tissue factor [1], B1 gave a Kd of 0.357 nM.

B2: humanized anti-tissue factor antibody MAb02 (antibody, V domains shown)
VH: QIQLVQSGPEVVKPGASVRVSCKGSGYSFTDYNIYWVRQSPAKGLEWIGYIDPYNGLTIYDQNFRAKATLSVDHSTSNAYMEINSLRYEDTAVYFCARDVTSALEFWGQGTSVTVSS
VL: DIQMTQSPASISASVGERVTITCLGSQTIDTYLAWYLQKPGRSPQLLIYAATQLADGVPSRFSASGSGTDFSLTISSLQPEDVATYYCQNVYSSPFTFGQGNKLEIKR
notes: Full heavy chain (449 aa) and light chain (214 aa), expressed in CHO-dhfr- cells
Take B2: in the experiment with tissue factor [2], binding was characterised by a dissociation constant (Kd) of 1 nM.

B3: humanized antibody against tissue factor before modification (CN 107446047A) (antibody, V domains shown)
VH: EVQLQQSGPELVKPGASVKVSCKASGYTFTHFNVYWVRQSPGKGLEWIGYIDPDNGITFYDENFMGKATLTVDKSSSTAYMQLNSLTSEDSAVYYCARDVTTAVDFWGQGTTLTVSS
VL: DIQMTQSPSSLSASVGDRVTITCLATQTLDTWLAWYQQKPGKAPQLLIYAATYLADGVPSRFSGSGSGTDFTFTISSLQPEDFATYYCQLVYSSPSTFGQGTKLEIK
notes: also called humanized antibody before modified
B3: the Kd in the experiment with tissue factor [3] stood at 33.7 nM.

Values taken from patent publication US20250170257A1 (NANOLATTIX BIOTECHNOLOGY, published 2025).
